Reference: US20030158387A1

How the values were obtained:
[1] = biological target: chemokine receptor 5 (CCR5) (human) (UniProt P51681)
[2] = biological target: chemokine receptor 5 (CCR5) (human) (UniProt P51681); remark: listed apart in the source
[3] = biological target: chemokine receptor 5 (CCR5) (human) (UniProt P51681); test: competition radioligand binding, membranes of CHO-K1 cells expressing CCR5, tracer [125I]-MIP-1 beta
[4] = biological target: chemokine receptor 1 (CCR1) (UniProt P56482); test: competition radioligand binding, membranes of CHO-K1 cells expressing CCR1, tracer [125I]-MIP-1 alpha
[5] = biological target: chemokine receptor 5 (CCR5) (human) (UniProt P51681); test: competition radioligand binding, membranes of CHO-K1 cells expressing CCR5, tracer [125I]-MIP-1 beta; mean ± SEM
[6] = biological target: chemokine receptor 1 (CCR1) (UniProt P56482); test: competition radioligand binding, membranes of CHO-K1 cells expressing CCR1, tracer [125I]-MIP-1 alpha; mean ± SEM
[7] = biological target: chemokine receptor 1 (CCR1) (UniProt P56482)
[8] = biological target: chemokine receptor 1 (CCR1) (UniProt P56482); remark: listed apart in the source
[9] = biological target: chemokine receptor 1 (CCR1) (UniProt P56482); test: cell-based or functional assay

Sequence of chemokine receptor 5 (CCR5) (human) (P51681 whole entry): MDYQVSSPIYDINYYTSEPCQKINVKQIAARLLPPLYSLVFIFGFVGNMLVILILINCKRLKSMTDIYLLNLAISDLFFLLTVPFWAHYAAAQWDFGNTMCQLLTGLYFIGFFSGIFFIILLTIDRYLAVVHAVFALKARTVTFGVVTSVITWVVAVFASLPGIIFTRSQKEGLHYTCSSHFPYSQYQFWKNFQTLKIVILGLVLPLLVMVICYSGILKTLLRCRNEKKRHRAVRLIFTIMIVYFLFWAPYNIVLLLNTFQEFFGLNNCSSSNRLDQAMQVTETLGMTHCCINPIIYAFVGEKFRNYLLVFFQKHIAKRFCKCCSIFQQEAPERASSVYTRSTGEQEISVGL
Sequence of RANTES (P13501 24-91): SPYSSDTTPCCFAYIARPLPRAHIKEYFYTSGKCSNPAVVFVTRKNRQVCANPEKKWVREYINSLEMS

Row | Substance | EC50 (aequorin luminescence, CHO-K1 cells expressing CCR5) [1] | EC50 (read off the curve) [2] | IC50 (read off the curve) [3] | IC50 (read off the curve) [4] | IC50 [5] | IC50 [6] | EC50 (aequorin luminescence, CHO-K1 cells expressing CCR1) [7] | EC50 (read off the curve) [8] | EC50 of receptor activation (aequorin assay) [9]
1 | AOP-RANTES (ligand) | 1.94 nM | 3 nM | 0.06 nM | 4 nM | 0.0968 nM | 2.67 nM |  |  | 
2 | NNY-RANTES (ligand) | 1.45 nM |  | 0.1 nM | 4 nM | 0.776 nM | 5.42 nM |  |  | 
3 | RANTES (from UniProt P13501 24-91) (ligand) |  |  |  | 0.3 nM |  |  | 8.03 nM | 10 nM | 6.3 nM
